According to patent publication US20250206792:

T1: Bovine Alpha-s1-casein (SEQ ID NO: 1)
T1 chain: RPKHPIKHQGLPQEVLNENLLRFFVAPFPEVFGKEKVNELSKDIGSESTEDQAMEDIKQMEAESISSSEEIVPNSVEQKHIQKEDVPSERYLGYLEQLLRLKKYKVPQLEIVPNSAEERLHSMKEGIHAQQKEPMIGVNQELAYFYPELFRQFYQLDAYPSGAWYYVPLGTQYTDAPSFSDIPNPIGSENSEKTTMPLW

T2: Bovine Beta-casein (SEQ ID NO: 3)
T2 chain: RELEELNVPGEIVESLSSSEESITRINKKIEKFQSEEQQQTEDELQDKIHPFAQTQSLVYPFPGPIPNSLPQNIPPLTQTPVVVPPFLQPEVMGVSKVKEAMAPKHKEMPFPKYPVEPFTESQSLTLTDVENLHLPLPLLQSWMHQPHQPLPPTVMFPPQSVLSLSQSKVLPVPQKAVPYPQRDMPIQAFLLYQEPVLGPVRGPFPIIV


Key:
[1] = molecular target: T1, Bovine Alpha-s1-casein (SEQ ID NO: 1)
[2] = molecular target: T2, Bovine Beta-casein (SEQ ID NO: 3)

Protein	number of phosphorylated sites similar to native phosphorylation sites, MS [1]	number of sites phosphorylated, in vitro kinase reaction, MS [1]	phosphorylation at *S56 (native site), MS grade, in vitro kinase reaction [1]	phosphorylation at *S61 (native site), MS grade, in vitro kinase reaction [1]	phosphorylation at *S63 (native site), MS grade, in vitro kinase reaction [1]	phosphorylation at *S79 (native site), MS grade, in vitro kinase reaction [1]	phosphorylation at *S81 (native site), MS grade, in vitro kinase reaction [1]	phosphorylation at *S82 (native site), MS grade, in vitro kinase reaction [1]	phosphorylation at *S83 (native site), MS grade, in vitro kinase reaction [1]	phosphorylation at *S90 (native site), MS grade, in vitro kinase reaction [1]	phosphorylation at S103, MS grade, in vitro kinase reaction [1]	phosphorylation at S137, MS grade, in vitro kinase reaction [1]	number of phosphorylated sites similar to native phosphorylation sites, MS [2]	number of sites phosphorylated, in vitro kinase reaction, MS [2]	phosphorylation at *S30 (native site), MS grade, in vitro kinase reaction [2]	phosphorylation at *S32 (native site), MS grade, in vitro kinase reaction [2]	phosphorylation at *S50 (native site), MS grade, in vitro kinase reaction [2]	phosphorylation at T39, MS grade, in vitro kinase reaction [2]	phosphorylation at *S130 (native site), MS grade, in vitro kinase reaction [1]	phosphorylation at Y159, MS grade, in vitro kinase reaction [1]	further results
YabT (GenBank: SPU13583.1) (SEQ ID NO: 5) (protein) MLNWTPKLQSLSTPFAKLSTAAITPTGPAIREATLQFEKYAQEGACWQMMNDALTSLACSLKPGTTIKGKWNGNTYTLRKQLGKGANGIVYLAETSDGHVALKVSDDSLSITSEVNVLKSFSKAQSVTMGPSFFDTDDAYIPSANTKVSFYAMEYIKGPLLLKYVSDKGAEWIPVLMIQLLSSLSVLHQQGWIFGDLKPDNLIVTGPPARIRCIDVGGTTKEGRAIKEYTEFYDRGYWGYGTRKAEPSYDLFAVAMIMINSVHKKEFKKTNQPKEQLRSLIEGNPLLQKYKKALFSALNGDYQSADEMKKDMLDAGQKAAQRKQPIKASPQPATRQRQQKPRQGKITKTRYTPKQKPAKSGGLFETTLIVISVLALYFAYIIFFLI	with 9 and 8 sites showing similarity to native phosphorylation sites	PrkD and YabT phosphorylated 13 and 10 sites, respectively	+++	++	++	+++	+++	+++	+++	++	+	+	with 3 sites showing similarity to native phosphorylation sites	PrkD and YabT phosphorylated 5 sites each	++	++	++	++	–	–	phosphorylation at T56, MS grade, in vitro kinase reaction [2]: +
PrkD (Bacillus subtilis 168 | BSU_02030) (SEQ ID NO: 7) (protein) MALKLLKKLLFDRPLKNGVILNHQYKIEECLGMGGYGLVYLCTDILAQTPYVLKQLRPTKAKKEKEKVRFQQEIKLLKNIHHPQIPGFIDEFIIDGQAYYVMQFIEGENIEELLFFRKQPFTELMALQLISQLLEIIEYLHDRLIFHSDIRTPNIIINDGRLCLIDFGLAKQLTPEEMEEIKVRKQDDFFDLGETLLFLLYSQYKGKKKKNGTWLEELTLTKEVTLLLKRLLGIEEEYQHTASIREDLNRAIQSVT	with 9 and 8 sites showing similarity to native phosphorylation sites	PrkD and YabT phosphorylated 13 and 10 sites, respectively	++	+	+	+	+	+	+	+	+	+	with 3 sites showing similarity to native phosphorylation sites	PrkD and YabT phosphorylated 5 sites each	+	+	+	+	+++	+	phosphorylation at Y161, MS grade, in vitro kinase reaction [1]: +; phosphorylation at S337, MS grade, in vitro kinase reaction [2]: +
PrkC (Bacillus subtilis) (SEQ ID NO: 8) (protein) MSGPVPSRARVYTDVNTHRPREYWDYESHVVEWGNQDDYQLVRKLGRGKYSEVFEAINITNNEKVVVKILKPVKKKKIKREIKILENLRGGPNIITLADIVKDPVSRTPALVFEHVNNTDFKQLYQTLTDYDIRFYMYEILKALDYCHSMGIMHRDVKPHNVMIDHEHRKLRLIDWGLAEFYHPGQEYNVRVASRYFKGPELLVDYQMYDYSLDMWSLGCMLASMIFRKEPFFHGHDNYDQLVRIAKVLGTEDLYDYIDKYNIELDPRFNDILGRHSRKRWERFVHSENQHLVSPEALDFLDKLLRYDHQSRLTAREAMEHPYFYTVVKDQARMGSSSMPGGSTPVSSANMMSGISSVPTPSPLGPLAGSPVIAAANPLGMPVPAAAGAQ	–	PKNB and PrkC phosphorylated 6 sites in αs1-casein each	+	–	–	–	–	–	–	–	+	+	–	PKNB and PrkC phosphorylated 2 sites in β-casein each	+	–	–	++	+	+	number of phosphorylated sites similar to native bovine phosphorylation sites, MS [1]: 2 sites; phosphorylation at Y109, MS grade, in vitro kinase reaction [1]: +; number of phosphorylated sites similar to native bovine phosphorylation sites, MS [2]: 1 sites
PKNB1_Cgl2751 (Corynebacterium glutamicum) (SEQ ID NO: 9) (protein) MYEVLGVIAHGGMGWIYLANDRNVSGRIVVLKGMMAQSSVQDQGTAEAEREFLADITHPGIVKAYNFIDDPRVPGGFIVMEYVNGPSLKDRCKAQPDGVLRVDLAIGYILELLPAMDYLHQRGVVYNDLKPENVIATEDQVKLIDLGAVTGIGAFGYIYGTKGFQAPEVATHGPSISSDIFTIGRTLAALTMPLPVEDGVLAPGIPSPKNSPLLRRHLSFYRLLQRATADDPQHRFRNVSELRTQLYGVLREILAVRDGKQYPPQHSLFSPQRSTFGTKHLVF	–	PKNB and PrkC phosphorylated 6 sites in αs1-casein each	–	–	–	–	–	–	–	–	+	+	–	PKNB and PrkC phosphorylated 2 sites in β-casein each	+	–	–	+++	+	+	number of phosphorylated sites similar to native bovine phosphorylation sites, MS [1]: 1 sites; phosphorylation at Y109, MS grade, in vitro kinase reaction [1]: +; phosphorylation at Y188, MS grade, in vitro kinase reaction [1]: +; number of phosphorylated sites similar to native bovine phosphorylation sites, MS [2]: 1 sites
